{
  "source": "paper PMC12232145",
  "about": "(BMC Microbiology, 2025)",
  "target": "human plasminogen (human, UniProt P00747 20-810)",
  "sequence (P00747 20-810)": "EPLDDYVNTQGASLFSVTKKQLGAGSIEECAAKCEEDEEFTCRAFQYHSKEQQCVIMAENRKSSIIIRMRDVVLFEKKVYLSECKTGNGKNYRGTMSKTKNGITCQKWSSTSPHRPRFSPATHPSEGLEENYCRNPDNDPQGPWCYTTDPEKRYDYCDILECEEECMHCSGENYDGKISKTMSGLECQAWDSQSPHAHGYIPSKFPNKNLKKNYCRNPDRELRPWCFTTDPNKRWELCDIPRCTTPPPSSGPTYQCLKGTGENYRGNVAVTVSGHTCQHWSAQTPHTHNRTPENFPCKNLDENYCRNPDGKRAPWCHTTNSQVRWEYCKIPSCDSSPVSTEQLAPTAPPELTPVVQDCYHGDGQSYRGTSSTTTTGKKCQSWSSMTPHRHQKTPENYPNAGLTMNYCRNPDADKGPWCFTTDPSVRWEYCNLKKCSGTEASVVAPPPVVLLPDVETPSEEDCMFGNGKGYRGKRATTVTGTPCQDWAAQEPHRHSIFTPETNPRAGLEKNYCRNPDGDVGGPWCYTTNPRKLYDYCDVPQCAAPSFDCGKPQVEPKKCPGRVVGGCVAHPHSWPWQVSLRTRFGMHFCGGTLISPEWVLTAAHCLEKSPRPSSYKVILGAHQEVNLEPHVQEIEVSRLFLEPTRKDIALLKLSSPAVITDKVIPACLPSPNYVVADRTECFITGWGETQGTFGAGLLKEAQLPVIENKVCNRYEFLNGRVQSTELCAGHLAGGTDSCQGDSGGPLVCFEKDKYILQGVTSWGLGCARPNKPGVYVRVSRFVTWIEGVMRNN",
  "test": "SPR",
  "data": [
    {"binder": "recombinant FabG (3-ketoacyl-ACP reductase) of Streptococcus suis serotype 2 strain ZY05719 (natural protein, UniProt A0A0H3MXL9 1-244, looked up) MELTNKNVFVTGSSRGIGLAIAHKFASLGANVVLNGRGQLGQDLLDSFADYGVKVLAISGDISSAQDAKRMVAEAIETLGSVDILVNNAGITKDGMALRMTEEDFDTVLKVNLTGTFNMTQAVLKPMTKAREGAIINLSSVSGLIGNAGQANYSASKAGVIGFTKAIAREVAGRNVRVNAIAPGFIQSDMTDVLSDKIKEAMTAQIPMKRFGATEEVADVAVFLAKQEYLTGQVIAVDGGLTMQ", "values": [
      {"measurement": "Kd", "result": 1.72, "unit": "nM"}
    ]}
  ]
}
